For one assay, the system named is HLA-DR4. Particulars: cited from earlier work.
Assay [1] relates to IVS T cells from vaccinated melanoma patients. Format: cell-based, human.
The target in assay [2] is purified HLA-DR4 (HLA-DRB1*0401) (human). Briefly: radioligand binding.

Read-outs that look alike come from different tables or passages of the source.

Data on eleven molecules can be found in paper PMC3888030 (Journal of immunology (Baltimore, Md. : 1950), 2013).

In the case of PKYVKQNTLKLAT [HA307–319], the “affinity for HLA-DR4” value with HLA-DR4 is listed as “high affinity”. Moreover, the “Background IFN-γ secretion by T cells stimulated with APC + control peptide” value is 213 pg/mL in assay [1] (Patient #2, 1 μM peptide stimulation); 208 pg/mL in assay [1] (Patient #2, 10 μM peptide stimulation); 187 pg/mL in assay [1] (Patient #4, 1 μM peptide stimulation); 191 pg/mL in assay [1] (Patient #4, 10 μM peptide stimulation); 346 pg/mL in assay [1] (Patient #5, 1 μM peptide stimulation); 388 pg/mL in assay [1] (Patient #5, 10 μM peptide stimulation).

As for “MBP111–129: self peptide from myelin basic protein (PSESDELQTIQEDSAATSE; UniProt P02686 111-129, looked up, fragment)”, in the assay on HLA-DR4, the “affinity for HLA-DR4” value is “binds weakly”. With WNRQLYPEWVEAQRLD [gp100 44-59 APL T53V], the IC50 in assay [2] was determined as 489 nM.

Molecule WNRQLYPEWTEAARLD [gp100 44-59 APL Q56A] displayed an IC50 in assay [2] of 276 nM.

WNRQLYPAWTEAQRLD [gp100 44-59 APL E51A]: the IC50 in assay [2] stood at 199 nM. In turn, WNRQLYAEWTEAQRLD [gp100 44-59 APL P50A] showed an IC50 in assay [2] of 189 nM.

In assay [2], WNRQLYPEATEAQRLD [gp100 44-59 APL W52A] showed a concentration for half-maximal inhibition (IC50) of 372 nM. In assay [2], WNRQFYPEWTEAQRLD [gp100 44-59 APL L48F] displayed an IC50 of 280 nM. WNRQLYPEWTTAQRLD [gp100 44-59 APL E54T] yielded an IC50 in assay [2] of 104 nM. The molecule WNRQLYPEWTLAQRLD [gp100 44-59 APL E54L] showed an IC50 in assay [2] of 65 nM.

Regarding WNRQLYPEWTEGQRLD [gp100 44-59 APL A55G], the concentration for half-maximal inhibition (IC50) in assay [2] turned out to be 553 nM.
